“And” between values parts separate entries of the source, which are not always exact repeats. Identical values can stand only once.
Assay: Monoclonal single chain antibody ELISA on PS plate
Assay type: binding
Conditions: supernatants of individual subclones, 10% human serum
Experimental: Individual HB2151 colonies from the plates (after 4 rounds of selection) were inoculated into 500 μl 2×TY containing 100 μg/ml ampicillin and 1% glucose in 96-well plates and grown with shaking (300 rpm.) overnight at 37° C. 5 μl from this plate were transferred to a second 96-well plate containing 500 μl 2×TY containing 100 μg/ml ampicillin per well and grown shaking at 37° C. for 3 hr (OD600=0.9).
To each well was added 50 μl 2×TY containing 100 μg/ml ampicillin, 10 mM IPTG (final concentration is 1 mM), which was grown with shaking overnight at 30° C. It was centrifuged at 1,800 g for 10 min and 100 μl of the supernatant used in the following ELISA.
96 well plates (DYNEX IMMULON®1B) were coated with PS dissolved in ethanol at a concentration of 10 μg/ml (P6641 10 mg/ml solvent was Chloroform:MeOH 95:5). 10 μg/ml PC was coated in the same way. These plates were evaporated at 4° C. in the cold room. 250 μl 2.5% casein was added to each well, and the plates were covered and blocked at 37° C. for 1 hour.
Wells were rinsed 3 times with PBS, 100 μl/well 10% human serum and 100 μl/well supernatant containing soluble scFv was added and incubated for 60 min at 37° C. The solution was discarded and washed 6 times with PBS. […] 100 μl 0.18 M H2SO4 was added to stop the reaction and read at O.D. 490.

B1: 3A2: scFv anti-PS clone; sequences SEQ ID NO:5 and SEQ ID NO:6 (protein)
scFv: AQPAMAEVQLVESGGGVVQPGRSLRLSCAASGFTFSSYGMHWVRQAPGKGLEWVAVISYDGSNKYYADSVKGRFTISRDNSKNTLYLQMNSLRAEDTAVYYCARLHAQTWGQGTLVTVSSGGGGSGGGGSGGSALQSVLTQPPSVSAAPGQKVTISCSGSSSDMGNYAVSWYQQLPGTAPKLLIYENNKRPSGIPDRFSGSKSGTSATLGITGLWPEDEADYYCLAWDTSPRNVFGGGTKLTVLGAAAHHHHHHGAAEQKL
  ELISA on PS Plate (O.D. 490): 0.126 and 0.118 (2×) and 0.131 (2×) and 0.125 and 0.115 and 0.127 and 0.150 and 0.117 and 0.112 and 0.121 and 0.123 and 0.114 and 0.116 and 0.132
